The values that follow come from patent US20060104978A1, “Methods and compositions for PDGF-C activation and inhibition” (LUDWIG INSTITUTE FOR CANCER RESEARCH, priority 2003, published 2006).

In assay [1] the test system is tPA. The experiment in a line: Ni-NTA pull-down of purified tPA by His6-tagged recombinant proteins. The class given is binding, human. The following applies: Ni-NTA beads coated with His6-tagged protein, 1 μg purified tPA, 2 hours room temperature, eluted with imidazole. Here is the method:
The possibility of a direct protein-protein interaction between tPA and latent PDGF-CC was explored by developing a pull-down assay. Ni-NTA beads were allowed to bind recombinant His6-tagged latent PDGF-CC or PDGF-DD, and purified tPA was added and incubated. Following extensive washings, bound proteins were subsequently eluted with an imidazole-containing buffer, and the eluates were analyzed by immunoblotting using specific antibodies.
To determine a direct protein-protein interaction between tPA and PDGF-CC, His6-tagged recombinant protein species were bound to Ni-NTA-agarose (Qiagen) and then incubated with 1 μg of purified tPA for 2 hours at room temperature. Uncoated and PDGF-DD coated Ni-NTA beads were used as controls. The beads were washed thoroughly, and His6-tagged proteins were specifically eluted with 400 mM imidazole. Eluted proteins were analyzed by SDS-PAGE under reducing conditions and immunoblotted with antibodies against human tPA (see above). The membranes were subsequently stripped and reprobed with specific antibodies.

Assay [2] relates to tPA. The experiment in a line: Cotransfection assay in COS-1 cells: PDGF-CC forms and mutants coexpressed with tPA. The following applies: over-expression of free CUB domain (CUBc-myc) with full-length PDGF-C and tPA in COS-1 cells. The class given is cell-based, human. The source says:
The structural requirements for recognition of full-length PDGF-CC as a substrate for tPA were mapped by analysis of several mutated forms of PDGF-CC using the co-transfection assay. The mutants of PDGF-CC included a chimeric form of PDGF-C carrying the CUB domain from PDGF-D and the hinge region and growth factor domain of PDGF-C (mutant PDCUBPC), and several truncation mutants lacking the CUB domain and increasing parts of the hinge region (schematically illustratrated in FIG. 6A). All mutants were properly expressed in transfected COS-1 cells, formed disulfide-linked dimers (data not shown), and were efficiently secreted, except truncation mutant Δ190 that was expressed at a lower level in the conditioned medium (FIG. 6B).
A conserved site of four amino acids containing three basic amino-acid residues (amino-acid residues -R-K-S-R-) was previously identified as a potential site for proteolytic activation of latent PDGF-CC (Li et al, 2000). […]
To test the endogenous expression of PDGF-CC, subconfluent AG1523 cells and primary fibroblast cultures were cultured in serum-free DMEM overnight. […] In the case of the primary cultures, total protein concentration was measured and normalized (Bradford, 1976). […] PDGF-C and PDGF-D were detected by immunoblotting using affinity-purified polyclonal rabbit antibodies against PDGF-C (Li et al, 2000) and PDGF-D (Bergsten et al, 2001), respectively. […]

Chain of tPA (P00750 36-562): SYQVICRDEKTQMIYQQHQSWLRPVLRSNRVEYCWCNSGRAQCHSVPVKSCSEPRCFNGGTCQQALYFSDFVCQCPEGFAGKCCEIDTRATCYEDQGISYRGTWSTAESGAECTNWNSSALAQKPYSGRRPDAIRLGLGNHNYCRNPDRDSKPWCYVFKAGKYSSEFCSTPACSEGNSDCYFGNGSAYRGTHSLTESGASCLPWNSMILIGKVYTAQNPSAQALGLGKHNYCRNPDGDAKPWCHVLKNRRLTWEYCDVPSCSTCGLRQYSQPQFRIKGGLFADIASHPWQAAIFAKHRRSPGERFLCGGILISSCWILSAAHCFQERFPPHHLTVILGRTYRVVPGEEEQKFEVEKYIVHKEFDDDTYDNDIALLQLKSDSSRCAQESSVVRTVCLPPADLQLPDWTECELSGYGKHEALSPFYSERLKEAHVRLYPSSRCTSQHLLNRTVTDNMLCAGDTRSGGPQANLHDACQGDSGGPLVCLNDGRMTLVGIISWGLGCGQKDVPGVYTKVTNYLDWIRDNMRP

B1: CUB domain: free CUB domain of PDGF-C; recombinant His6-tagged (residues 23-163) or c-myc-tagged (residues 1 to 165) (protein)
chain: ESNLSSKFQFSSNKEQNGVQDPQHERIITVSTNGSIHSPRFPHTYPRNTVLVWRLVAVEENVWIQLTFDERFGLEDPEDDICKYDFVEVEEPSDGTILGRWCGSGTVPGKQISKGNQIRIRFVSDEYFPSEPGFCIHYNIVHHHHHH
For B1, the “binding of tPA in pull-down” value in assay [1] is “both domains were able to interact with tPA”. In assay [2], the “competition for tPA-mediated processing of latent PDGF-CC” value was “efficiently competed for the interaction and processing of latent PDGF-CC by tPA”.
